One assay deals with T1, cynomolgus CD19 (cynomolgus (Macaca fascicularis), UniProt A0A2K5W8L9 20-557).
T1 construct: whole, on cells; also called CD19 from cynomolgus monkey (Macaca fascicularis)
T1 sequence: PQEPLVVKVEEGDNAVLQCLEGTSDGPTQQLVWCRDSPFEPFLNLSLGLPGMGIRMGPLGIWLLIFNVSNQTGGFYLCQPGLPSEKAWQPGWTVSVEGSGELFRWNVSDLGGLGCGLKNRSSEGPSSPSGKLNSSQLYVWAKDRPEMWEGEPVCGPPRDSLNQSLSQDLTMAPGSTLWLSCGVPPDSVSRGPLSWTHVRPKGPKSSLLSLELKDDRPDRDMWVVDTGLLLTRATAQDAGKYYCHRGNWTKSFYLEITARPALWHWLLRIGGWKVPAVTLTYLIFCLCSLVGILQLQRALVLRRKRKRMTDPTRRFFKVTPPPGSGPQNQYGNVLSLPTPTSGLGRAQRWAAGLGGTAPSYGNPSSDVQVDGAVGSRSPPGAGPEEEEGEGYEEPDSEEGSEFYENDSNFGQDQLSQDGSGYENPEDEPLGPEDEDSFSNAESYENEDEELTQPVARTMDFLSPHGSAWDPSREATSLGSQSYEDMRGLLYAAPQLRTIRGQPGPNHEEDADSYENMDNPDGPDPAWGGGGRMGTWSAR
Nature of the assay: flow cytometry on monkey blood lymphocytes (method for the murine antibody not detailed). For orientation: In flow cytometry, cells or beads pass a laser one at a time.

In the next assay the target is T2, rhesus CD19 (rhesus (Macaca mulatta), UniProt F7F486 20-557).
T2 construct: whole, on cells; also called CD19 from rhesus monkey (Macaca mulatta)
T2 sequence: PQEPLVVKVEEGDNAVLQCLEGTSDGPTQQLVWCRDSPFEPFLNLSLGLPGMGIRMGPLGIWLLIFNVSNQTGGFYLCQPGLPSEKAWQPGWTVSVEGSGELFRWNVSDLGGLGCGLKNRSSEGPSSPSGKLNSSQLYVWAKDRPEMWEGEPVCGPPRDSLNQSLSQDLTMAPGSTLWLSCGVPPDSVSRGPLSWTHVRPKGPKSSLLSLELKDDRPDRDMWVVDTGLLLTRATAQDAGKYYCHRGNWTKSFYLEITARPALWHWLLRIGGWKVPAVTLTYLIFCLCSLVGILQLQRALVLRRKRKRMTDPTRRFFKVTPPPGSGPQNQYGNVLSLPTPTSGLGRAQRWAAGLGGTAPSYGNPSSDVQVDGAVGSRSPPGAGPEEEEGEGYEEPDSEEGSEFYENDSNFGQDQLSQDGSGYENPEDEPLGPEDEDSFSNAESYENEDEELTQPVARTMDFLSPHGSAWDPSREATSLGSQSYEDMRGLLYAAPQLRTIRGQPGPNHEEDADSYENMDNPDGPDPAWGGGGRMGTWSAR
The description is as above.

B1: parental murine antibody of the anti-CD19 (4G7) (antibody, V domains shown)
VH: EVQLQQSGPELIKPGASVKMSCKASGYTFTSYVMHWVKQKPGQGLEWIGYINPYNDGTKYNEKFKGKATLTSDKSSSTAYMELSSLTSEDSAVYYCARGTYYYGSRVFDYWGQGTTLTVSS
VL: DIVMTQAAPSIPVTPGESVSISCRSSKSLLNSNGNTYLYWFLQRPGQSPQLLIYRMSNLASGVPDRFSGSGSGTAFTLRISRVEAEDVGVYYCMQHLEYPFTFGAGTKLELK
notes: also called its parental murine antibody
On to B1, for which the binding result with cynomolgus CD19 and with rhesus CD19 was “no binding” throughout.

The values are drawn from patent US20100272723A1 (Xencor, published 2010).
